Source: patent publication US20190111115A1

Key:
Experiment in all cases: ELISA
Human FcR1 (human) = Human FcR1 (human) (UniProt P12314)
Human FcRIIA[H] (human) = Human FcRIIA[H] (human) (UniProt P12318)
Human FcRIIA[R] = target: Human FcRIIA[R]
Human FcRIIB = target: Human FcRIIB
Human FcRIII (human) = target: Human FcRIII (human)
Human FcRn = target: Human FcRn
Mouse FcRIIB = target: Mouse FcRIIB
Mouse FcRIV = target: Mouse FcRIV
Mouse FcRI = target: Mouse FcRI

Sequence of Human FcRIII (human) (P08637 17-208): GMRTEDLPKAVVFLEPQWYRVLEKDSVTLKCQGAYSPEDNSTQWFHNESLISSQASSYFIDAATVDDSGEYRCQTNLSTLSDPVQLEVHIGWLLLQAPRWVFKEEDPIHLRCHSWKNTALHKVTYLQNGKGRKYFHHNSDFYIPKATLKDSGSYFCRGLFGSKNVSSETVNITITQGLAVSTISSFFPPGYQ
Sequence of Mouse FcRIV (A0A0B4J1G0 21-203): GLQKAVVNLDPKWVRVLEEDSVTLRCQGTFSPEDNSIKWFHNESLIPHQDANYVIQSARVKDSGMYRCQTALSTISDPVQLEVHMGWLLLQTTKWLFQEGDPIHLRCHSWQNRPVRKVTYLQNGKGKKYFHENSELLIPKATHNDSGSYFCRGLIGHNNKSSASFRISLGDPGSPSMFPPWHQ
Sequence of Human FcRIIA[H] (human) (P12318 34-217): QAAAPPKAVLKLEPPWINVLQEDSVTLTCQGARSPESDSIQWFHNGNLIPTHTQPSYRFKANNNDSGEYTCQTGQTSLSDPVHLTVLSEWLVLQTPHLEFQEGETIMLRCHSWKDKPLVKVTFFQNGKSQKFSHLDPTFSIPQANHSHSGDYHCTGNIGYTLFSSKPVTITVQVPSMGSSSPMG
Sequence of Human FcR1 (human) (P12314 16-292): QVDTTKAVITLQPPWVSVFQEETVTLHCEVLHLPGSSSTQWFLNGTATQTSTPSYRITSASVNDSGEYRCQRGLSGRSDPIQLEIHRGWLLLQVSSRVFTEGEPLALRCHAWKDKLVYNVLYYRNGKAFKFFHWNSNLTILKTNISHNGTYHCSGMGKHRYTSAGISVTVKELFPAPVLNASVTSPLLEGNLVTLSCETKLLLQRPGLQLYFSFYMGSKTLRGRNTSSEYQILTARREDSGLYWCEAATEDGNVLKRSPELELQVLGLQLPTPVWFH

IgG1
Kd (Human FcR1 (human)): 0.161 nM
Kd (Human FcRIIA[H] (human)): 333 nM
Kd (Human FcRIIA[R]): 200 nM
Kd (Human FcRIIB): 876 nM
Kd (Human FcRIII (human)): 1180 nM
Kd (Human FcRn): 14 nM
Kd (Mouse FcRIIB): 375 nM
Kd (Mouse FcRIV): 6.52 nM
Kd (Mouse FcRI): 1.33 nM
